# Measurements published in PMC7602980 (Biomolecules, 2020).
# B1: Cx43CL_(136-158) M147T peptide (peptide)
# peptide: KYGIEEHGKVKTRGGLLRTYIIS
# notes: connexin43 (Cx43) cytoplasmic loop, residues K136-S158, with the ODDD mutation M147T; ODDD-linked mutation that occurs in patients; No species is named for the synthetic peptides; source: synthetic peptide (LifeTein, 95% purity)
# B2: Cx43CL_(136-158) T154A peptide (peptide)
# peptide: KYGIEEHGKVKMRGGLLRAYIIS
# notes: connexin43 (Cx43) cytoplasmic loop, residues K136-S158, with the ODDD mutation T154A; ODDD-linked mutation that occurs in patients; No species is named for the synthetic peptides; source: synthetic peptide (LifeTein, 95% purity)
# B3: Cx43CL_(136-158) R148Q peptide (peptide)
# peptide: KYGIEEHGKVKMQGGLLRTYIIS
# notes: connexin43 (Cx43) cytoplasmic loop, residues K136-S158, with the ODDD mutation R148Q; ODDD-linked mutation that occurs in patients; No species is named for the synthetic peptides; source: synthetic peptide (LifeTein, 95% purity)
# Molecular target: T1, calmodulin (UniProt P0DP23 1-149)
# T1 construct: calmodulin (CaM); Used 15N-labeled or unlabeled; also called CaM; source: expressed (cloned in pAED4 vector)
# Assay: NMR titration; 15N-HSQC; 15N-labeled CaM at a constant concentration (30–100 μM), unlabeled ligand added (7.5 to 400 μM); KD by nonlinear fitting of chemical shift changes, average of at least six curves
# Details: both partners purified
row,binding result,Binder
1,binds,B1
2,binds,B2
3,binds,B3
